# Reference: the RNAGym collection of RNA variant scans (doi:10.7554/elife.90254)
# B1: LINE1-mini (parent)
# chain: GGCAGAGCUCAACACAGCGUGGCAAAGUGGCUGUGGCUAGACUGCC
# Variants of: B1
# Assay: self-cleavage, relative activity (ratio to wild type); higher = more cleavage; in vitro, sequencing; the parent is a self-cleaving ribozyme
row,Variant,self-cleavage
1,GGCAGAGCUCCACACAGCGUGGGAAAGUGGCUGUGGCUAGACUGCC [A11C C23G],0.06
2,GGCAGAGCUCAACACAGCGUGGCAAUGUGGCUGUGGUUAGACUGCC [A26U C37U],0.08
3,GGCAGAGCUCAACACAGCGCGGCAAAAUGGCUGUGGCUAGACUGCC [U20C G27A],0.78
4,GGCAAAGCACAACACAGCGUGGCAAAGUGGCUGUGGCUAGACUGCC [G5A U9A],0.35
5,GGCAGAGCUAAACACAGCGUGGCAAAGGGGCUGUGGCUAGACUGCC [C10A U28G],0.06
6,GGCAGAUCUCAACACAGCGUGGCAAAGUGGCUGUGGCUAGACUACC [G7U G44A],0.09
7,GGCAGAGCUCAACACAGCGUGGCAAAGUGGCUGUGGCUAGUGUGCC [A41U C42G],0.07
8,GGCAGAGCUCAACACAGCGUGGCAAGGUGGCUGUGGCUAGAUUGCC [A26G C42U],0.13
9,GGCAGAGCUCACCACAGCGUGGCAAAGUGGCUGUGGCUAAACUGCC [A12C G40A],0.04
10,GGCAGAGCUCAACACAGCGUGGCAAAGCGGCUGUCGCUAGACUGCC [U28C G35C],0.13
11,GGCAGAGCUCAACACAGCGUGGCAAAGUGGCUGUGGCUAUACUUCC [G40U G44U],0.12
12,GGCAGUGCUCAACACUGCGUGGCAAAGUGGCUGUGGCUAGACUGCC [A6U A16U],0.11
13,GGCAGAGCUCAACACAGUGUGGCAAAGUGGCUGUGGGUAGACUGCC [C18U C37G],0.04
14,GGCAGAGCUCAACACAGCGUGGUAUAGUGGCUGUGGCUAGACUGCC [C23U A25U],0.93
15,GGCAGAGCUCAACACAGCGUGGCAAAGUGGCUGUGGCUAACCUGCC [G40A A41C],0.13
16,GGCAGAGCUCAACACAGCGUGGCAAAGUGGCUGUGGCUAAGCUGCC [G40A A41G],0.08
17,GACAGAGCUCAACACAGCGCGGCAAAGUGGCUGUGGCUAGACUGCC [G2A U20C],0.48
18,GGCAGAGCUCAACACAGCGUGGCAAAGUAGCUGUGGCUAGACUGCA [G29A C46A],0.89
19,GGCAGAGCUCAACACAGCGUGGUAAAGUGGCUGAGGCUAGACUGCC [C23U U34A],0.28

row,Variant,self-cleavage
1,GGCAGAGCUCAACACAGCGUGGUAAAGUGGCUGGGGCUAGACUGCC [C23U U34G],0.3
2,GGCAGAGCUCAACACAGCGUGGCAAAGUGCCUGUGGCUAGAGUGCC [G30C C42G],0.04
3,GGCAGAGCUCAAAACAGCGUGGCAAAGUGGCUGUGGCUAUACUGCC [C13A G40U],0.09
4,GGCAGAGCUCAACACAGCGUGGCAACGUGGCUGUGGCUAGACUCCC [A26C G44C],0.35
5,GGCUGAGCUCAACACAGCGUGGCAAAGUGGCUGGGGCUAGACUGCC [A4U U34G],0.06
6,GGCAGAGCUAAACACAGCGUGGCAAAGUCGCUGUGGCUAGACUGCC [C10A G29C],0.04
7,GGCAGAGCUCAACACAGUGUGGCAAAGUGGCAGUGGCUAGACUGCC [C18U U32A],0.04
8,GGCAGAGCUCAACACAGGGUGGCAAAGAGGCUGUGGCUAGACUGCC [C18G U28A],0.39
9,GGCAGAGCUCAACACAGCGUGGCAAGGUGGCUGUGGCUAGACUGUC [A26G C45U],0.77
10,GGCAGAGCUCAACACAGCGUGGCAAAGUGGAUGUGGCUAGACGGCC [C31A U43G],0.15
11,GUCAGAGCUCAACACAGCGUGGCAAAGUGGCUGUGGCAAGACUGCC [G2U U38A],0.05
12,GGCAGCGCUCAAUACAGCGUGGCAAAGUGGCUGUGGCUAGACUGCC [A6C C13U],0.14
13,GGCAGAGCUGAACACAGCGUGGCAAUGUGGCUGUGGCUAGACUGCC [C10G A26U],0.15
14,GGCAGAGCUCAGCACAGCGUGGCAAAGUGGCUGUGGAUAGACUGCC [A12G C37A],0.04
15,GGCAGAGCUCAACACAGCGUGGAAAAGUGGCUGUGGCUAGACUUCC [C23A G44U],0.28
16,GGGAGAGCUCAACACAGCGUGGAAAAGUGGCUGUGGCUAGACUGCC [C3G C23A],0.47
17,GGCAGAGCUCAACACAGCGUGGCAAAGUGGCUGUGGCUAGUCGGCC [A41U U43G],0.17
18,GGCAGAGCUCAACACGGCGUGGCAAAGUGGCUGUGGCUAGACUGCA [A16G C46A],0.64
19,GGCAGAGCUCAACACGCCGUGGCAAAGUGGCUGUGGCUAGACUGCC [A16G G17C],0.31

row,Variant,self-cleavage
1,GGCAGAGCUCAACAUCGCGUGGCAAAGUGGCUGUGGCUAGACUGCC [C15U A16C],0.13
2,GGCAGAGCUCAACACAGCGUGGCAAUGUGGCUGUGGCUAGAUUGCC [A26U C42U],0.08
3,GGCAGAGCUCAACACAGCGUGGCAAAGUGGUCGUGGCUAGACUGCC [C31U U32C],0.08
4,GGCAGAGCUCAACCCAGCGUGGCAAAGUGGCUGUGGCUAGACUGCU [A14C C46U],0.18
5,GGCAGAGCUCAAUACAUCGUGGCAAAGUGGCUGUGGCUAGACUGCC [C13U G17U],0.12
6,GGCAGAGCUCAACACAGCGUGCCAAAGUGGCUGUGUCUAGACUGCC [G22C G36U],0.1
7,GGCAGAGCUCAACACAGCGUGGCAAAGUGGCUGUGGCUCGACUGUC [A39C C45U],0.24
8,GGCAGAGCUCAACACAGCGUGUCAUAGUGGCUGUGGCUAGACUGCC [G22U A25U],1.49
9,GGCAGAGCUCAACACAGCGUGGCAAAGUGACUGUGGCUAGACUGAC [G30A C45A],0.71
10,GGCAGAGCUCAGCACAGCCUGGCAAAGUGGCUGUGGCUAGACUGCC [A12G G19C],0.02
11,GGCAGAGCUCAACCCAGCGUGGCAAAGUGGCUGUGGCUAUACUGCC [A14C G40U],0.07
12,GGCAGAGCUGAACACAGCGGGGCAAAGUGGCUGUGGCUAGACUGCC [C10G U20G],0.05
13,GGCAGAGCUCAACACAGCUUGGCAAAGUGGCUGUGGCUAGACUGGC [G19U C45G],0.82
14,GGCAGAGCUCAACACAGCGAGGCAAAGUGGCUGUGGCUAGACUGGC [U20A C45G],0.21
15,GGCAGAGCUCAAAACAGCGUGGCAAAGUGGCUCUGGCUAGACUGCC [C13A G33C],0.06
16,GGCAGAGCGCAACACAGCGUGGCAAAGUGGCUGUGGCUAGAAUGCC [U9G C42A],0.08
17,GGAAGAGCUCAACUCAGCGUGGCAAAGUGGCUGUGGCUAGACUGCC [C3A A14U],0.27
18,GGCAGAGCUCAACACAGCGUGGCAAAGUCGCUGUGGCUAGACUUCC [G29C G44U],0.37
